In paper PMC10721474 (Plant Communications, 2023):

How the values were obtained:
[1] = biological target: T1, PIN1 (Arabidopsis thaliana, UniProt Q9C6B8); test: [3H]IAA efflux assay in HEK293F cells; type: cell-based
T1 sequence (Q9C6B8 1-622): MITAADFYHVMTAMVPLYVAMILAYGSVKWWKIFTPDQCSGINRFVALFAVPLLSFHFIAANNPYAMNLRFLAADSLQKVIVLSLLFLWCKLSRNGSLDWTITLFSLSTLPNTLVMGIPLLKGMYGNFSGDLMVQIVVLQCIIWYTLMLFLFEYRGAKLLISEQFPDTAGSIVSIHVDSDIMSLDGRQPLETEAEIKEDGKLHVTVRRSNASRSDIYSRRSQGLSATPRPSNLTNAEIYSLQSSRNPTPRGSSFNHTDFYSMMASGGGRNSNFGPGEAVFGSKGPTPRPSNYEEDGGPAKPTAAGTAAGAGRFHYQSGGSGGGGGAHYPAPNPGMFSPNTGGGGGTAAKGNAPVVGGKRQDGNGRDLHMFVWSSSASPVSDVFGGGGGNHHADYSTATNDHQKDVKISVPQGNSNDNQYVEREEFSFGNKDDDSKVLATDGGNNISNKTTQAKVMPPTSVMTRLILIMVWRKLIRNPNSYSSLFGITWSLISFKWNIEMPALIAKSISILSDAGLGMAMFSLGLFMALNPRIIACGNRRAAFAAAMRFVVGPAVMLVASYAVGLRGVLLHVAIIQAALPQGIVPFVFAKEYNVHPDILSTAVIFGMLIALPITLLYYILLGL
T1 sequence (Q9FG74 1-498 partner): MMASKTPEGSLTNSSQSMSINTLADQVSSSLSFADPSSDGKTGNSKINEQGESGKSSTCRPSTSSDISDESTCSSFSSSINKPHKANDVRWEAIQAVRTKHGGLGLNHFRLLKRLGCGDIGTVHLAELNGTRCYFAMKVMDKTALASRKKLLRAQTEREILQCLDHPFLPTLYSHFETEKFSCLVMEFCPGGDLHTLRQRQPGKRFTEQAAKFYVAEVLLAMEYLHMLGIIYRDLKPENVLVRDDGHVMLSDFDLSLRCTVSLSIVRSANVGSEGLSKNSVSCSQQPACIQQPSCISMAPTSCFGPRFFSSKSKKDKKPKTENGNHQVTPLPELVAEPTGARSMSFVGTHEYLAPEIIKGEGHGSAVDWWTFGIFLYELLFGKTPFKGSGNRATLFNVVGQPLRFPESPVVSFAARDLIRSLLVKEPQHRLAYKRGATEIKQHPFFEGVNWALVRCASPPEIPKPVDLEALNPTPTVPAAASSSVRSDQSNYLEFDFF

[2] = biological target: Arabidopsis thaliana PIN-FORMED 1 (PIN1) auxin transporter (Arabidopsis thaliana, UniProt Q9C6B8); test: cryo-EM structure
[3] = biological target: the molecule itself; test: cryo-EM structure

Question: Which “[3H]IAA efflux assay in HEK293F cells” value [1] does the source give for `O=C(O)Cc1c[nH]c2ccccc12` [IAA, indole-3-acetic acid] here?
Answer: had much lower retention of [^3H]-IAA than cells transfected with the empty vector

B1: synthetic nanobody sybody-19 (VHH)
VHH: QVQLVESGGGLVQAGGSLRLSCAASGFPVDITWMEWYRQAPGKEREWVAAIYSSGQSTWYADSVKGRFTISRDNAKNTVYLQMNSLKPEDTAVYYCRVKVGAWYKGQGTQVTVSA
Question: Does B1 bind [2]?
Answer: binds

B2: Arabidopsis thaliana PIN-FORMED 1 (PIN1) auxin transporter (natural protein)
chain: T1 sequence (Q9C6B8 1-622)
Question: Does B2 bind [3]?
Answer: binds
